Target: His-hB55 (human PP2A regulatory subunit B55α) (human) (UniProt P63151)
Test: MST; His-B55 labelled with RED-Tris-NTA dye, added to serial dilutions of mEya3 (wild type or mutant) in PBS with 0.05% Tween-20; Monolith NT.115 Pico

Sequence of His-hB55 (human PP2A regulatory subunit B55α) (human) (P63151 whole entry): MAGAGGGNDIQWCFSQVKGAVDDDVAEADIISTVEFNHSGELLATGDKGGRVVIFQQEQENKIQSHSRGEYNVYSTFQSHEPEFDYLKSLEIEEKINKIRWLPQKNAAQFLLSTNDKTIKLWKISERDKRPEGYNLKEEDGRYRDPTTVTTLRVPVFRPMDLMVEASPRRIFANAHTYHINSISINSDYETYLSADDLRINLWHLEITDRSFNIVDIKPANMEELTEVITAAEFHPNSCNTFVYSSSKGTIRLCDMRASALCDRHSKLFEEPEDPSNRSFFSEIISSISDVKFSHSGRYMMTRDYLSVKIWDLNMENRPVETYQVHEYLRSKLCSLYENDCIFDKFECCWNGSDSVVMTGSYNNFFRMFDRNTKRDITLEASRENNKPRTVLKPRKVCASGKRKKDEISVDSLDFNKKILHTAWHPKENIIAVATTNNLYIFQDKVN

**Q.** “mouse Eya3 (mEya3), wild type (from UniProt P97480 1-510) (natural protein)” was tested. Which Kd did it give?
**A.** The Kd was 1.04 µM.

Reference: publication PMC12246617, “Cryo-EM structures reveal the PP2A–B55α and Eya3 interaction that can be disrupted by a peptide inhibitor” (The Journal of Biological Chemistry, 2025)
